Experimental findings from patent publication US20190177431A1 (FUDAN UNIVERSITY, published 2019) are described below.

The target in assay [1] is T1, human TF on the cell surface of tumor cells (human, UniProt P13726 33-295).
T1 construct: whole, on cells; Endogenous TF on TF-positive human tumor cell lines; also called cell surface TF
The assay is described as follows: flow cytometry on MDA-MB-231 cells, antibody at 1 µg/mL. The method, then:
(§1) The cells were washed with PBS twice to remove the unbound primary antibody, and the target cells were incubated with 200 μL PE-labeled secondary antibody (2 μg/mL) at 4° C. for 30 min. The cells were washed with PBS twice to remove the unbound secondary antibody, and finally the cells were re-suspended in 400 μL PBS.

The target of assay [2] is T1, human TF on the cell surface of tumor …. The assay is described as follows: flow cytometry on MDA-MB-231 cells, antibody at 10 µg/mL. On the set-up: reference not given here. The protocol: as §1
In assay [3] the target is T2, extracellular domain of human TF protein (human, UniProt P13726 34-251).
T2 construct: range 34-251; Limits 34-251 are stated for the immunogen; also called the extracellular domain protein of TF; TF antigen
The assay is described as follows: ELISA, coated TF extracellular domain. The method, then:
The antigen (the extracellular domain protein of TF) was diluted to 0.5 μg/mL with a coating solution, and was used to coat an ELISA plate overnight, at 100 μL/well and 4° C. The excessive antigen was removed by washing. The plate was blocked with 2% BSA at room temperature for 2 h, and then each of the 3-fold serial diluted monoclonal antibodies was added at 100 μL/well, and was incubated for 2 h at room temperature. The unbound antibodies were removed by washing, and an appropriate concentration of horseradish peroxidase-labeled anti-mouse secondary antibody was added at 100 μL/well, and incubated for 1 h at room temperature. The unbound secondary antibody was removed by washing, TMB chromogenic solution was added, and the color was developed to an appropriate color depth. 2M H₂SO₄ was added at 50 μL/well, to stop the chromogenic reaction, the absorbance at 450 nm was then determined, and the data was analyzed.
Firstly, the 20 humanized antibodies were determined for their affinity for the extracellular domain protein of TF by ELISA binding assay (The experimental method refers to Step \textcircled{4} of Example 1).

B1: TF-mAb-H42 (antibody, V domains shown)
VH: QVQLVQSGAEVKKPGASVKVSCKASGYSFISYWMNWVRQAPGQGLEWIGMIYPADSETRLNQKFKDRATLTVDKSTSTAYMELSSLRSEDTAVYYCAREDYGSSDYWGQGTTVTVSS
VL: DIQLTQSPSSLSASVGDRVTITCSASSSVSYMNWYQQKPGKSPKIWIYGISNLASGVPSRFSGSGSGTDFTLTISSLQPEDFATYYCQQKSSFPWTFGGGTKVEIK
notes: Humanized
As for B1, the MFI in assay [1] is 2970; in assay [2] it was 3350. The molecule further had a half-maximal effective concentration (EC50) in assay [3] of 0.0128 nM.

B2: TF-mAb-H43 (antibody, V domains shown)
VH: QVQLVQSGSELKKPGASVKVSCKASGYSFISYWMNWVRQAPGQGLEWIGMIYPADSETRLNQKFKDRAVLSVDKSVSTAYLQICSLKAEDTAVYYCAREDYGSSDYWGQGTTVTVSS
VL: DIQLTQSPSSLSASVGDRVTITCSASSSVSYMNWYQQKPGKSPKIWIYGISNLASGVPSRFSGSGSGTDFTLTISSLQPEDFATYYCQQKSSFPWTFGGGTKVEIK
notes: Humanized
With B2, the MFI in assay [1] worked out at 2820; in assay [2], 3300. The molecule further showed an EC50 in assay [3] of 0.0116 nM.

B3: TF-mAb-H30 (antibody, V domains shown)
VH: EVQLVQSGAEVKKPGESLKISCKGSGYSFTSYWMNWVRQMPGKGLEWMGMIYPADSETRLNQKFKDKATLSVDKSISTAYLQWSSLKASDTAMYYCAREDYGSSDYWGQGTTVTVSS
VL: EIVLTQSPATLSLSPGERATLSCSASSSVSYMNWYQQKPGQAPRIWIYGISNLASGIPARFSGSGSGTDFTLTISSLEPEDFAVYYCQQKSSFPWTFGGGTKVEIK
notes: Humanized
In the case of B3, the MFI was found to be 2930 in assay [1] and 3240 in assay [2]. The same molecule registered an EC50 in assay [3] of 0.0147 nM.

B4: TF-mAb-H32 (antibody, V domains shown)
VH: QVQLVQSGAEVKKPGASVKVSCKASGYSFISYWMNWVRQAPGQGLEWIGMIYPADSETRLNQKFKDRATLTVDKSTSTAYMELSSLRSEDTAVYYCAREDYGSSDYWGQGTTVTVSS
VL: EIVLTQSPATLSLSPGERATLSCSASSSVSYMNWYQQKPGQAPRIWIYGISNLASGIPARFSGSGSGTDFTLTISSLEPEDFAVYYCQQKSSFPWTFGGGTKVEIK
notes: Humanized
Take B4: the figures for the MFI in assay [1] and in assay [2] were 2400 and 3010, respectively. This molecule displayed an EC50 in assay [3] of 0.0168 nM.

B5: TF-mAb-H38 (antibody, V domains shown)
VH: QVQLVQSGSELKKPGASVKVSCKASGYSFISYWMNWVRQAPGQGLEWIGMIYPADSETRLNQKFKDRAVLSVDKSVSTAYLQICSLKAEDTAVYYCAREDYGSSDYWGQGTTVTVSS
VL: EIVLTQSPATLSLSPGERATLSCSASSSVSYMNWYQQKPGQSPRIWIYGISNLASGVPARFSGSGSGTDFTLTISSLEPEDFAVYYCQQKSSFPWTFGGGTKVEIK
notes: Humanized
Consider B5, for which the values for the MFI in assay [1] and in assay [2] were 2870 and 3150, respectively. In assay [3], this molecule had an EC50 of 0.0178 nM.

B6: TF-mAb-H40 (antibody, V domains shown)
VH: EVQLVQSGAEVKKPGESLKISCKGSGYSFTSYWMNWVRQMPGKGLEWMGMIYPADSETRLNQKFKDKATLSVDKSISTAYLQWSSLKASDTAMYYCAREDYGSSDYWGQGTTVTVSS
VL: DIQLTQSPSSLSASVGDRVTITCSASSSVSYMNWYQQKPGKSPKIWIYGISNLASGVPSRFSGSGSGTDFTLTISSLQPEDFATYYCQQKSSFPWTFGGGTKVEIK
notes: Humanized
Consider B6, for which the MFI in assay [1] came out at 3180; in assay [2], 3310. The same molecule registered a concentration giving a half-maximal response (EC50) in assay [3] of 0.0131 nM.

B7: TF-mAb-H45 (antibody, V domains shown)
VH: EVQLVQSGAEVKKPGESLKISCKGSGYSFTSYWMNWVRQMPGKGLEWMGMIYPADSETRLNQKFKDKATLSVDKSISTAYLQWSSLKASDTAMYYCAREDYGSSDYWGQGTTVTVSS
VL: EIVLTQSPDFQSVTPKEKVTITCSASSSVSYMNWYQQKPDQSPKIWIYGISNLASGVPSRFSGSGSGTDFTLTINSLEAEDAATYYCQQKSSFPWTFGGGTKVEIK
notes: Humanized
Consider B7, for which the MFI in assay [1] is 3100; in assay [2] it was 3480. In assay [3], this molecule returned an EC50 of 0.0138 nM.

B8: TF-mAb-H39 (antibody, V domains shown)
VH: EVQLVQSGAEVKKPGESLKISCKGSGYSFTSYWMNWVRQMPGKGLEWMGMIYPADSETRLNQKFKDQATLSVDKSISTAYLQWSSLKASDTAMYYCAREDYGSSDYWGQGTTVTVSS
VL: DIQLTQSPSSLSASVGDRVTITCSASSSVSYMNWYQQKPGKSPKIWIYGISNLASGVPSRFSGSGSGTDFTLTISSLQPEDFATYYCQQKSSFPWTFGGGTKVEIK
notes: Humanized; also called humanized antibody TF-mAb-H39
For B8, the MFI came to 3180 in assay [1] and 3380 in assay [2]. For the same molecule, the EC50 in assay [3] worked out at 0.0125 nM.

B9: TF-mAb-H37 (antibody, V domains shown)
VH: QVQLVQSGAEVKKPGASVKVSCKASGYSFISYWMNWVRQAPGQGLEWIGMIYPADSETRLNQKFKDRATLTVDKSTSTAYMELSSLRSEDTAVYYCAREDYGSSDYWGQGTTVTVSS
VL: EIVLTQSPATLSLSPGERATLSCSASSSVSYMNWYQQKPGQSPRIWIYGISNLASGVPARFSGSGSGTDFTLTISSLEPEDFAVYYCQQKSSFPWTFGGGTKVEIK
notes: Humanized
As for B9, the MFI in assay [1] is 2460; in assay [2], 2990. In addition, in assay [3], the 50% effective concentration (EC50) stood at 0.0173 nM.

B10: TF-mAb-H34 (antibody, V domains shown)
VH: EVQLVQSGAEVKKPGESLKISCKGSGYSFTSYWMNWVRQMPGKGLEWMGMIYPADSETRLNQKFKDQATLSVDKSISTAYLQWSSLKASDTAMYYCAREDYGSSDYWGQGTTVTVSS
VL: EIVLTQSPATLSLSPGERATLSCSASSSVSYMNWYQQKPGQSPRIWIYGISNLASGVPARFSGSGSGTDFTLTISSLEPEDFAVYYCQQKSSFPWTFGGGTKVEIK
notes: Humanized
Regarding B10, the MFI is 2460 in assay [1] and 3270 in assay [2]. The molecule also displayed an EC50 in assay [3] of 0.0154 nM.

B11: TF-mAb-H31 (antibody, V domains shown)
VH: EVQLVQSGAEVKKPGESLKISCKGSGYSFTSYWMNWVKQMPGKGLEWMGMIYPADSETRLNQKFKDKATLSVDKSISTAYLQWSSLKASDTAMYYCAREDYGSSDYWGQGTTVTVSS
VL: EIVLTQSPATLSLSPGERATLSCSASSSVSYMNWYQQKPGQAPRIWIYGISNLASGIPARFSGSGSGTDFTLTISSLEPEDFAVYYCQQKSSFPWTFGGGTKVEIK
notes: Humanized
Turning to B11, the MFI was 3080 in assay [1] and 3470 in assay [2]. The EC50 in assay [3] is 0.0145 nM.

B12: TF-mAb-H41 (antibody, V domains shown)
VH: EVQLVQSGAEVKKPGESLKISCKGSGYSFTSYWMNWVKQMPGKGLEWMGMIYPADSETRLNQKFKDKATLSVDKSISTAYLQWSSLKASDTAMYYCAREDYGSSDYWGQGTTVTVSS
VL: DIQLTQSPSSLSASVGDRVTITCSASSSVSYMNWYQQKPGKSPKIWIYGISNLASGVPSRFSGSGSGTDFTLTISSLQPEDFATYYCQQKSSFPWTFGGGTKVEIK
notes: Humanized
With B12, the results for the MFI in assay [1] and in assay [2] were 3000 and 3610, respectively. A half-maximal response in assay [3] (EC50) required 0.0134 nM.

B13: TF-mAb-H29 (antibody, V domains shown)
VH: EVQLVQSGAEVKKPGESLKISCKGSGYSFTSYWMNWVRQMPGKGLEWMGMIYPADSETRLNQKFKDQATLSVDKSISTAYLQWSSLKASDTAMYYCAREDYGSSDYWGQGTTVTVSS
VL: EIVLTQSPATLSLSPGERATLSCSASSSVSYMNWYQQKPGQAPRIWIYGISNLASGIPARFSGSGSGTDFTLTISSLEPEDFAVYYCQQKSSFPWTFGGGTKVEIK
notes: Humanized
Consider B13, for which the MFI is 2960 in assay [1] and 3580 in assay [2]. In assay [3], this molecule had a concentration for a half-maximal effect (EC50) of 0.0178 nM.

B14: TF-mAb-H35 (antibody, V domains shown)
VH: EVQLVQSGAEVKKPGESLKISCKGSGYSFTSYWMNWVRQMPGKGLEWMGMIYPADSETRLNQKFKDKATLSVDKSISTAYLQWSSLKASDTAMYYCAREDYGSSDYWGQGTTVTVSS
VL: EIVLTQSPATLSLSPGERATLSCSASSSVSYMNWYQQKPGQSPRIWIYGISNLASGVPARFSGSGSGTDFTLTISSLEPEDFAVYYCQQKSSFPWTFGGGTKVEIK
notes: Humanized
For the molecule B14, the MFI in assay [1] is 2930; in assay [2], 3020. The same molecule displayed an EC50 in assay [3] of 0.0105 nM.

B15: TF-mAb-H36 (antibody, V domains shown)
VH: EVQLVQSGAEVKKPGESLKISCKGSGYSFTSYWMNWVKQMPGKGLEWMGMIYPADSETRLNQKFKDKATLSVDKSISTAYLQWSSLKASDTAMYYCAREDYGSSDYWGQGTTVTVSS
VL: EIVLTQSPATLSLSPGERATLSCSASSSVSYMNWYQQKPGQSPRIWIYGISNLASGVPARFSGSGSGTDFTLTISSLEPEDFAVYYCQQKSSFPWTFGGGTKVEIK
notes: Humanized
In the case of B15, the MFI turned out to be 3040 in assay [1] and 3090 in assay [2]. Moreover, in assay [3], the EC50 stood at 0.0234 nM.

B16: TF-mAb-H33 (antibody, V domains shown)
VH: QVQLVQSGSELKKPGASVKVSCKASGYSFISYWMNWVRQAPGQGLEWIGMIYPADSETRLNQKFKDRAVLSVDKSVSTAYLQICSLKAEDTAVYYCAREDYGSSDYWGQGTTVTVSS
VL: EIVLTQSPATLSLSPGERATLSCSASSSVSYMNWYQQKPGQAPRIWIYGISNLASGIPARFSGSGSGTDFTLTISSLEPEDFAVYYCQQKSSFPWTFGGGTKVEIK
notes: Humanized
With B16, the results for the MFI in assay [1] and in assay [2] were 2420 and 2840, respectively. For the same molecule, the EC50 in assay [3] is 0.0189 nM.
